What all share (experiment): pull-down; 6.6 uM I16C-Alexa546-ARR1 mixed with 0.1 uM BBS5L-GST, BBS5-GST or GST, overnight at 4°C; immunoprecipitated with anti-GST antibody on magnetic beads; fluorescence of the captured arrestin1 measured
The target in assay [1] is BBS5L-GST phosphorylated by protein kinase C (mouse).
Assay [2] addresses BBS5L-GST (splice variant of BBS5 in fusion with glutathione-S-transferase) (mouse).
The target of assay [3] is T1, I16C-Alexa546-ARR1 (I16C-substituted bovine arrestin1 labeled with AlexaFluor-546) (bovine, UniProt P08168 1-404, I16C, AlexaFluor-546 on the reactive sulfhydryl group generated by I16C).
T1 construct: arrestin1 (S-arrestin), bovine, with the substitution I16C; also called ARR1-Alexa546; fluorescently labeled arrestin1
Particulars: both partners purified.

T1 sequence (P08168 whole entry I16C): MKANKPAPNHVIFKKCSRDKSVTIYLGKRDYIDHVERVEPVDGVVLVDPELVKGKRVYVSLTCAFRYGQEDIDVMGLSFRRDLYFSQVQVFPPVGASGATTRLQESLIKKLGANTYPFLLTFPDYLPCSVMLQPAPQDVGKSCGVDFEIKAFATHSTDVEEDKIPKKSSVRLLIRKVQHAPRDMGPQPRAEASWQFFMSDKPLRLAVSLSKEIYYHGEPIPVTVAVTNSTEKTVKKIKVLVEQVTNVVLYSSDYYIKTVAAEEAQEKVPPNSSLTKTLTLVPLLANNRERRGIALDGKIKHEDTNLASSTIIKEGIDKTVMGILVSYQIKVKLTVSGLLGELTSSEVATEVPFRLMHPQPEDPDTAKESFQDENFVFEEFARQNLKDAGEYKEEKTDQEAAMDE

With “I16C-Alexa546-ARR1 (I16C-substituted bovine arrestin1 labeled with AlexaFluor-546) (from UniProt P08168 1-404) (natural protein)”, in assay [1], the percent reduction of arrestin1 pull-down against unphosphorylated BBS5L worked out at 31%. Also, the amount of arrestin1 bound relative to BBS5 in assay [2] is 0.5 fold of BBS5.

B1: BBS5-GST (Bardet-Biedl Syndrome 5 protein in fusion with glutathione-S-transferase) (natural protein, mouse, UniProt Q9CZQ9 1-341, looked up)
chain: MSVLDVLWEDRDVRFDVSSQQMKTRPGEVLIDCLDSIEDTKGNNGDRGRLLVTNLRIIWHSLALPRVNLSIGYNCILNITTRTANSKLRGQTEALYILTKCNTTRFEFIFTNLVPGSPRLFTSVIAVHRAYETSKMYRDFKLRSAVIQNKQLRLLPQEHVYDKINGVWNLSSDQGNLGTFFITNVRIVWHANMNDSFNVSIPYLQIRSIKIRDSKFGLALVIESSQQSGGYVLGFKIDPVEKLQESVKEINSLHKVYSASPIFGVNYEMEEKPQPLEALTVEQIQDDVEIDSDDHTDAFVAYFADGNKQQDREPVFSEELGLAIEKLKDGFTLQGLWEVMS
notes: BBS5, mouse; open-reading frame amplified from murine retinal cDNA; cDNA for His-tagged BBS5 was cloned into pGEX-4T-1 at the EcoRI site, fused to the C-terminus of GST; not shown: GST, N-terminal, kept
Take B1: the binding result in assay [3] is reported as “binds”.

Source of the values: paper PMC4750968, “A Splice Variant of Bardet-Biedl Syndrome 5 (BBS5) Protein that Is Selectively Expressed in Retina” (PLoS ONE, 2016).
